*1 amine or outer side, *2 acyl side, *3 side chain or, on linkers, in order; H or OH if unused. Bridges are numbered along the chain shown (N, C = ends). [ ]: non-standard residue; d: D form. The star is where a group is joined. C20 diacid = O=C(O)CCCCCCCCCCCCCCCCCCC(=O)*; γGlu = O=C(O)[C@H](CCC(=O)[*:2])N[*:1]; Hyp = O=C(O)[C@@H]1C[C@@H](O)CN1; NMeI = CC[C@H](C)[C@H](NC)C(=O)O; Aad = N[C@@H](CCCC(=O)O)C(=O)O; Orn = NCCC[C@H](N)C(=O)O; Sar = CNCC(=O)O
B1: [19CD]-isoGlu-R-C( )-QTAT-C( )-ATERLAHFLQRF-Gly(Me)-A-Ile(Me)-LSSTEVGSNTP-NH2 (Compd. 96) (peptide)
peptide: {C20 diacid-γGlu}-RCQTATCATERLAHFLQRF[Sar]A[NMeI]LSSTEVGSNTP-NH2
modifications: disulfide 2-7
SMILES: CC[C@H](C)[C@@H](C(=O)N[C@@H](CC(C)C)C(=O)N[C@@H](CO)C(=O)N[C@@H](CO)C(=O)N[C@H](C(=O)N[C@@H](CCC(=O)O)C(=O)N[C@H](C(=O)NCC(=O)N[C@@H](CO)C(=O)N[C@@H](CC(N)=O)C(=O)N[C@H](C(=O)N1CCC[C@H]1C(N)=O)[C@@H](C)O)C(C)C)[C@@H](C)O)N(C)C(=O)[C@H](C)NC(=O)CN(C)C(=O)[C@H](Cc1ccccc1)NC(=O)[C@H](CCCNC(=N)N)NC(=O)[C@H](CCC(N)=O)NC(=O)[C@H](CC(C)C)NC(=O)[C@H](Cc1ccccc1)NC(=O)[C@H](Cc1c[nH]cn1)NC(=O)[C@H](C)NC(=O)[C@H](CC(C)C)NC(=O)[C@H](CCCNC(=N)N)NC(=O)[C@H](CCC(=O)O)NC(=O)[C@@H](NC(=O)[C@H](C)NC(=O)[C@@H]1CSSC[C@H](NC(=O)[C@H](CCCNC(=N)N)NC(=O)CC[C@H](NC(=O)CCCCCCCCCCCCCCCCCCC(=O)O)C(=O)O)C(=O)N[C@@H](CCC(N)=O)C(=O)N[C@@H]([C@@H](C)O)C(=O)N[C@@H](C)C(=O)N[C@@H]([C@@H](C)O)C(=O)N1)[C@@H](C)O
B2: [19CD]-isoGlu-R-C( )-NTAT-C( )-ATQRLADFLHRSSF-Gly(Me)-A-Ile(Me)-LSSTEVGSETP-NH2 (Compd. 1) (peptide)
peptide: {C20 diacid-γGlu}-RCNTATCATQRLADFLHRSSF[Sar]A[NMeI]LSSTEVGSETP-NH2
modifications: disulfide 2-7
SMILES: CC[C@H](C)[C@@H](C(=O)N[C@@H](CC(C)C)C(=O)N[C@@H](CO)C(=O)N[C@@H](CO)C(=O)N[C@H](C(=O)N[C@@H](CCC(=O)O)C(=O)N[C@H](C(=O)NCC(=O)N[C@@H](CO)C(=O)N[C@@H](CCC(=O)O)C(=O)N[C@H](C(=O)N1CCC[C@H]1C(N)=O)[C@@H](C)O)C(C)C)[C@@H](C)O)N(C)C(=O)[C@H](C)NC(=O)CN(C)C(=O)[C@H](Cc1ccccc1)NC(=O)[C@H](CO)NC(=O)[C@H](CO)NC(=O)[C@H](CCCNC(=N)N)NC(=O)[C@H](Cc1c[nH]cn1)NC(=O)[C@H](CC(C)C)NC(=O)[C@H](Cc1ccccc1)NC(=O)[C@H](CC(=O)O)NC(=O)[C@H](C)NC(=O)[C@H](CC(C)C)NC(=O)[C@H](CCCNC(=N)N)NC(=O)[C@H](CCC(N)=O)NC(=O)[C@@H](NC(=O)[C@H](C)NC(=O)[C@@H]1CSSC[C@H](NC(=O)[C@H](CCCNC(=N)N)NC(=O)CC[C@H](NC(=O)CCCCCCCCCCCCCCCCCCC(=O)O)C(=O)O)C(=O)N[C@@H](CC(N)=O)C(=O)N[C@@H]([C@@H](C)O)C(=O)N[C@@H](C)C(=O)N[C@@H]([C@@H](C)O)C(=O)N1)[C@@H](C)O
B3: [19CD]-isoGlu-R-C( )-GTAT-C( )-ATERLAHFLTRSSF-Gly(Me)-A-Ile(Me)-LSSTEVGSFT-Hyp-NH2 (Compd. 10) (peptide)
peptide: {C20 diacid}-[γGlu]RCGTATCATERLAHFLTRSSF[Sar]A[NMeI]LSSTEVGSFT[Hyp]-NH2
modifications: disulfide 3-8
SMILES: CC[C@H](C)[C@@H](C(=O)N[C@@H](CC(C)C)C(=O)N[C@@H](CO)C(=O)N[C@@H](CO)C(=O)N[C@H](C(=O)N[C@@H](CCC(=O)O)C(=O)N[C@H](C(=O)NCC(=O)N[C@@H](CO)C(=O)N[C@@H](Cc1ccccc1)C(=O)N[C@H](C(=O)N1C[C@H](O)C[C@H]1C(N)=O)[C@@H](C)O)C(C)C)[C@@H](C)O)N(C)C(=O)[C@H](C)NC(=O)CN(C)C(=O)[C@H](Cc1ccccc1)NC(=O)[C@H](CO)NC(=O)[C@H](CO)NC(=O)[C@H](CCCNC(=N)N)NC(=O)[C@@H](NC(=O)[C@H](CC(C)C)NC(=O)[C@H](Cc1ccccc1)NC(=O)[C@H](Cc1c[nH]cn1)NC(=O)[C@H](C)NC(=O)[C@H](CC(C)C)NC(=O)[C@H](CCCNC(=N)N)NC(=O)[C@H](CCC(=O)O)NC(=O)[C@@H](NC(=O)[C@H](C)NC(=O)[C@@H]1CSSC[C@H](NC(=O)[C@H](CCCNC(=N)N)NC(=O)CC[C@H](NC(=O)CCCCCCCCCCCCCCCCCCC(=O)O)C(=O)O)C(=O)NCC(=O)N[C@@H]([C@@H](C)O)C(=O)N[C@@H](C)C(=O)N[C@@H]([C@@H](C)O)C(=O)N1)[C@@H](C)O)[C@@H](C)O
B4: [19CD]-isoGlu-R-C( )-GTAT-C( )-ATERLAHFLTRSSF-Gly(Me)-A-Ile(Me)-LSSTEVGS-Orn-T-Hyp-NH2 (Compd. 11) (peptide)
peptide: {C20 diacid}-[γGlu]RCGTATCATERLAHFLTRSSF[Sar]A[NMeI]LSSTEVGS[Orn]T[Hyp]-NH2
modifications: disulfide 3-8
SMILES: CC[C@H](C)[C@@H](C(=O)N[C@@H](CC(C)C)C(=O)N[C@@H](CO)C(=O)N[C@@H](CO)C(=O)N[C@H](C(=O)N[C@@H](CCC(=O)O)C(=O)N[C@H](C(=O)NCC(=O)N[C@@H](CO)C(=O)N[C@@H](CCCN)C(=O)N[C@H](C(=O)N1C[C@H](O)C[C@H]1C(N)=O)[C@@H](C)O)C(C)C)[C@@H](C)O)N(C)C(=O)[C@H](C)NC(=O)CN(C)C(=O)[C@H](Cc1ccccc1)NC(=O)[C@H](CO)NC(=O)[C@H](CO)NC(=O)[C@H](CCCNC(=N)N)NC(=O)[C@@H](NC(=O)[C@H](CC(C)C)NC(=O)[C@H](Cc1ccccc1)NC(=O)[C@H](Cc1c[nH]cn1)NC(=O)[C@H](C)NC(=O)[C@H](CC(C)C)NC(=O)[C@H](CCCNC(=N)N)NC(=O)[C@H](CCC(=O)O)NC(=O)[C@@H](NC(=O)[C@H](C)NC(=O)[C@@H]1CSSC[C@H](NC(=O)[C@H](CCCNC(=N)N)NC(=O)CC[C@H](NC(=O)CCCCCCCCCCCCCCCCCCC(=O)O)C(=O)O)C(=O)NCC(=O)N[C@@H]([C@@H](C)O)C(=O)N[C@@H](C)C(=O)N[C@@H]([C@@H](C)O)C(=O)N1)[C@@H](C)O)[C@@H](C)O
B5: [19CD]-isoGlu-R-C( )-GTAT-C( )-ATERLAHFLTRSSF-Gly(Me)-A-Ile(Me)-LSSTEVGS-Aad-T-Hyp-NH2 (Compd. 12) (peptide)
peptide: {C20 diacid}-[γGlu]RCGTATCATERLAHFLTRSSF[Sar]A[NMeI]LSSTEVGS[Aad]T[Hyp]-NH2
modifications: disulfide 3-8
SMILES: CC[C@H](C)[C@@H](C(=O)N[C@@H](CC(C)C)C(=O)N[C@@H](CO)C(=O)N[C@@H](CO)C(=O)N[C@H](C(=O)N[C@@H](CCC(=O)O)C(=O)N[C@H](C(=O)NCC(=O)N[C@@H](CO)C(=O)N[C@@H](CCCC(=O)O)C(=O)N[C@H](C(=O)N1C[C@H](O)C[C@H]1C(N)=O)[C@@H](C)O)C(C)C)[C@@H](C)O)N(C)C(=O)[C@H](C)NC(=O)CN(C)C(=O)[C@H](Cc1ccccc1)NC(=O)[C@H](CO)NC(=O)[C@H](CO)NC(=O)[C@H](CCCNC(=N)N)NC(=O)[C@@H](NC(=O)[C@H](CC(C)C)NC(=O)[C@H](Cc1ccccc1)NC(=O)[C@H](Cc1c[nH]cn1)NC(=O)[C@H](C)NC(=O)[C@H](CC(C)C)NC(=O)[C@H](CCCNC(=N)N)NC(=O)[C@H](CCC(=O)O)NC(=O)[C@@H](NC(=O)[C@H](C)NC(=O)[C@@H]1CSSC[C@H](NC(=O)[C@H](CCCNC(=N)N)NC(=O)CC[C@H](NC(=O)CCCCCCCCCCCCCCCCCCC(=O)O)C(=O)O)C(=O)NCC(=O)N[C@@H]([C@@H](C)O)C(=O)N[C@@H](C)C(=O)N[C@@H]([C@@H](C)O)C(=O)N1)[C@@H](C)O)[C@@H](C)O
B6: [19CD]-isoGlu-R-C( )-GTAT-C( )-ATERLAHFLTRSSF-Gly(Me)-A-Ile(Me)-LSSTEVGSGT-Hyp-NH2 (Compd. 13) (peptide)
peptide: {C20 diacid}-[γGlu]RCGTATCATERLAHFLTRSSF[Sar]A[NMeI]LSSTEVGSGT[Hyp]-NH2
modifications: disulfide 3-8
SMILES: CC[C@H](C)[C@@H](C(=O)N[C@@H](CC(C)C)C(=O)N[C@@H](CO)C(=O)N[C@@H](CO)C(=O)N[C@H](C(=O)N[C@@H](CCC(=O)O)C(=O)N[C@H](C(=O)NCC(=O)N[C@@H](CO)C(=O)NCC(=O)N[C@H](C(=O)N1C[C@H](O)C[C@H]1C(N)=O)[C@@H](C)O)C(C)C)[C@@H](C)O)N(C)C(=O)[C@H](C)NC(=O)CN(C)C(=O)[C@H](Cc1ccccc1)NC(=O)[C@H](CO)NC(=O)[C@H](CO)NC(=O)[C@H](CCCNC(=N)N)NC(=O)[C@@H](NC(=O)[C@H](CC(C)C)NC(=O)[C@H](Cc1ccccc1)NC(=O)[C@H](Cc1c[nH]cn1)NC(=O)[C@H](C)NC(=O)[C@H](CC(C)C)NC(=O)[C@H](CCCNC(=N)N)NC(=O)[C@H](CCC(=O)O)NC(=O)[C@@H](NC(=O)[C@H](C)NC(=O)[C@@H]1CSSC[C@H](NC(=O)[C@H](CCCNC(=N)N)NC(=O)CC[C@H](NC(=O)CCCCCCCCCCCCCCCCCCC(=O)O)C(=O)O)C(=O)NCC(=O)N[C@@H]([C@@H](C)O)C(=O)N[C@@H](C)C(=O)N[C@@H]([C@@H](C)O)C(=O)N1)[C@@H](C)O)[C@@H](C)O
B7: [19CD]-isoGlu-R-C( )-NTAT-C( )-ATQRLAHFLHRF-Gly(Me)-A-Ile(Me)-LSSTEVGSETP-NH2 (Compd. 14) (peptide)
peptide: {C20 diacid-γGlu}-RCNTATCATQRLAHFLHRF[Sar]A[NMeI]LSSTEVGSETP-NH2
modifications: disulfide 2-7
SMILES: CC[C@H](C)[C@@H](C(=O)N[C@@H](CC(C)C)C(=O)N[C@@H](CO)C(=O)N[C@@H](CO)C(=O)N[C@H](C(=O)N[C@@H](CCC(=O)O)C(=O)N[C@H](C(=O)NCC(=O)N[C@@H](CO)C(=O)N[C@@H](CCC(=O)O)C(=O)N[C@H](C(=O)N1CCC[C@H]1C(N)=O)[C@@H](C)O)C(C)C)[C@@H](C)O)N(C)C(=O)[C@H](C)NC(=O)CN(C)C(=O)[C@H](Cc1ccccc1)NC(=O)[C@H](CCCNC(=N)N)NC(=O)[C@H](Cc1c[nH]cn1)NC(=O)[C@H](CC(C)C)NC(=O)[C@H](Cc1ccccc1)NC(=O)[C@H](Cc1c[nH]cn1)NC(=O)[C@H](C)NC(=O)[C@H](CC(C)C)NC(=O)[C@H](CCCNC(=N)N)NC(=O)[C@H](CCC(N)=O)NC(=O)[C@@H](NC(=O)[C@H](C)NC(=O)[C@@H]1CSSC[C@H](NC(=O)[C@H](CCCNC(=N)N)NC(=O)CC[C@H](NC(=O)CCCCCCCCCCCCCCCCCCC(=O)O)C(=O)O)C(=O)N[C@@H](CC(N)=O)C(=O)N[C@@H]([C@@H](C)O)C(=O)N[C@@H](C)C(=O)N[C@@H]([C@@H](C)O)C(=O)N1)[C@@H](C)O

The binders below were run against T1, human amylin receptor 3 (hAMYR3), hCTR2 co-expressed with human receptor activity modifying protein 3 (hRAMP3) (human, UniProt P30988 25-474; O60896 24-148) (assay: cell-based or functional assay).
T1 sequence (looked up) 1: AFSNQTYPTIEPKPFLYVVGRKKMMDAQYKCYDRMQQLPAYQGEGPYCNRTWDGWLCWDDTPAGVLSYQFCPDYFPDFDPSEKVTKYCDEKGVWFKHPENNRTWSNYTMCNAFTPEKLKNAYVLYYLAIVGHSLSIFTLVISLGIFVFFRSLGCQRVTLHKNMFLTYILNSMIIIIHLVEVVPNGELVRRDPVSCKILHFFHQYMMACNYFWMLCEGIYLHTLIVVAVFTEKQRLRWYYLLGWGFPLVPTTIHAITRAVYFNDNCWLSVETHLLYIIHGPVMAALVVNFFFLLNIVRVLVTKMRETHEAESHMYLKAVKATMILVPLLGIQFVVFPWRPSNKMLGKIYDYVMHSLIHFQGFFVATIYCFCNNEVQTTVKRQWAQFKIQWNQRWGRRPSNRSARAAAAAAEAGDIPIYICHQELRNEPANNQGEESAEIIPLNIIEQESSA
T1 sequence (looked up) 2: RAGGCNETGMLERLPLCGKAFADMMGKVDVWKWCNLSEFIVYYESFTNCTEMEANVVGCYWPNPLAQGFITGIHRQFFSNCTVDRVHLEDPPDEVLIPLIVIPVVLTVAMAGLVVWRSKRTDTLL

Binder | hAMYR3 EC50 (nM); cAMP induction [nM]
B1 | 0.28
B2 | 0.23
B3 | 0.35
B4 | 0.2
B5 | 0.25
B6 | 0.38
B7 | 0.26
